From publication PMC3148490 (Cell metabolism, 2011)

B1: MBP-DAMH (MBP fusion protein of the CAPS DAMH domain) (domain or fragment, UniProt Q62717 859-1073, looked up)
chain: ENVGRLITPAKKLEDTIRLAELVIEVLQQNEEHHAEAFAWWSDLMVEHAETFLSLFAVDMDAALEVQPPDTWDSFPLFQLLNDFLRTDYNLCNGKFHKHLQDLFAPLVVRYVDLMESSIAQSIHRGFERESWEPVNNGSGTSEDLFWKLDALQTFIRDLHWPEEEFGKHLEQRLKLMASDMIESCVKRTRIAFEVKLQKTSRSTDFRVPQSICTM
B2: GST-DAMH (GST fusion protein of CAPS(859-1073), the DAMH domain) (domain or fragment, UniProt Q62717 859-1073, looked up)
chain: ENVGRLITPAKKLEDTIRLAELVIEVLQQNEEHHAEAFAWWSDLMVEHAETFLSLFAVDMDAALEVQPPDTWDSFPLFQLLNDFLRTDYNLCNGKFHKHLQDLFAPLVVRYVDLMESSIAQSIHRGFERESWEPVNNGSGTSEDLFWKLDALQTFIRDLHWPEEEFGKHLEQRLKLMASDMIESCVKRTRIAFEVKLQKTSRSTDFRVPQSICTM

Experiments:
[1] = molecular target: T1, t-SNAREs: heterodimeric complex of syntaxin-1 and SNAP-25, membrane-integrated in liposomes (UniProt P32851 1-288; P60881 1-206); test: co-sedimentation
T1 sequence (P32851 whole entry, chain 1 of 2): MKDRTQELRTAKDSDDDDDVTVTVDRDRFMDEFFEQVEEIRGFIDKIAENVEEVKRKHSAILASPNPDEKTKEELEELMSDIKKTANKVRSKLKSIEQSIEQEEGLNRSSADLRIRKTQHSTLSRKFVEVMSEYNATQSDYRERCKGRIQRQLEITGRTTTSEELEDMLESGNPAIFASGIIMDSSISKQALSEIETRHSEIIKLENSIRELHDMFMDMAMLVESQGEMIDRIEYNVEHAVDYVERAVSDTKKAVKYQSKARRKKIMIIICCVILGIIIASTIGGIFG
T1 sequence (P60881 whole entry, chain 2 of 2): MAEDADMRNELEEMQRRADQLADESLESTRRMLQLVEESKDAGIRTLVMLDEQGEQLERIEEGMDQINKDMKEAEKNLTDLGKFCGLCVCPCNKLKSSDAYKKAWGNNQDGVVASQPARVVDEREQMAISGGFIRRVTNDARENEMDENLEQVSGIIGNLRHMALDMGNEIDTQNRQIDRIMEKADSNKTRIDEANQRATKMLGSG

[2] = molecular target: T1, t-SNAREs: heterodimeric complex of …; test: co-sedimentation; remark: listed apart in the source

Binder | Kd [1] [nM] | fold binding against syntaxin-1 or SNAP-25 alone [2] [fold]
B1 | 177 | –
B2 | – | 2
